# Measurements reported in paper PMC2779587, “Domain Requirements and Sequence Specificity of DNA Binding for the Forkhead Transcription Factor FOXP3”.
# T1: FOXP3 FKH domain (UniProt Q9BZS1 337-423)
# T1 sequence: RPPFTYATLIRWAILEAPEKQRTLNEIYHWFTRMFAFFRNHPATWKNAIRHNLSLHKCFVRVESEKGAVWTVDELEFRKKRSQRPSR
# B1: A' (25 bp), 10-bp spacing (dsDNA)
# DNA 1: CAAGGTAAACAAGAGTAAACAAGTC
# DNA 2: GACTTGTTTACTCTTGTTTACCTTG
# B2: A' (GC) (dsDNA)
# DNA 1: CAAGGCAAACAAGACAACGCAAACAA
# DNA 2: TTGTTTGCGTTGTCTTGTTTGCCTTG
# B3: A' (A1-A1) (dsDNA)
# DNA 1: CAAGGTAAACAAGACAACGTAAACAA
# DNA 2: TTGTTTACGTTGTCTTGTTTACCTTG
# B4: A' (35 bp), 20-bp spacing (dsDNA)
# DNA 1: CAAGGTAAACAAGACAACACGATTGTAAACAAGTC
# DNA 2: GACTTGTTTACAATCGTGTTGTCTTGTTTACCTTG
# B5: A' (AT) (dsDNA)
# DNA 1: CAAGATAAACAAGACAACATAAACAA
# DNA 2: TTGTTTATGTTGTCTTGTTTATCTTG
# B6: A (A1-A2) (dsDNA)
# DNA 1: CAAGGTAAACAAGACAACACAAATAA
# DNA 2: TTATTTGTGTTGTCTTGTTTACCTTG
# B7: A'' (A2-A2) (dsDNA)
# DNA 1: CAAGACAAATAAGACAACACAAATAA
# DNA 2: TTATTTGTGTTGTCTTATTTGTCTTG
# How the values were obtained:
# FOXP3-ΔN [1] = biological target: T2, FOXP3-ΔN (human, UniProt Q9BZS1 182-431); assay: EMSA; 12 mM HEPES pH 7.5, 100 mM NaCl, 1 mM DTT, 1 mM EDTA, 12% glycerol, 20 µg/ml poly(dI)-poly(dC), room temperature 20 min; conditions: protein: ivt; chain copies: 2; label: 32P 5' end; blunt
# FOXP3-ΔN [2] = biological target: T2, FOXP3-ΔN; assay: as above; conditions: protein: ivt; chain copies: 2; label: 32P 5' end; blunt; remark: listed apart in the source
# FOXP3-ΔN C204S = FOXP3-ΔN C204S (human, UniProt Q9BZS1 182-431, C204S); assay: EMSA; not influenced by mutation; 12 mM HEPES pH 7.5, 100 mM NaCl, 1 mM DTT, 1 mM EDTA, 12% glycerol, 20 µg/ml poly(dI)-poly(dC), room temperature 20 min; conditions: protein: ivt; chain copies: 2; label: 32P 5' end; blunt
# FOXP3-ΔN [3] = biological target: T2, FOXP3-ΔN; assay: EMSA; binding more than doubled; 12 mM HEPES pH 7.5, 100 mM NaCl, 1 mM DTT, 1 mM EDTA, 12% glycerol, 20 µg/ml poly(dI)-poly(dC), room temperature 20 min; conditions: protein: ivt; chain copies: 2; label: 32P 5' end; blunt
# FOXP3 full length = FOXP3 full length (human, UniProt Q9BZS1 1-431); assay: EMSA; 12 mM HEPES pH 7.5, 100 mM NaCl, 1 mM DTT, 1 mM EDTA, 12% glycerol, 20 µg/ml poly(dI)-poly(dC), room temperature 20 min; conditions: protein: ivt; chain copies: 2; label: 32P 5' end; blunt
# FOXP3-ΔN delK250 = FOXP3-ΔN delK250 (human, UniProt Q9BZS1 182-431, del250-250); assay: as above; conditions: protein: ivt; chain copies: 2; label: 32P 5' end; blunt
# FOXP3-ΔN ΔFKH = FOXP3-ΔN ΔFKH (human, UniProt Q9BZS1 182-336); assay: as above; conditions: protein: ivt; label: 32P 5' end; blunt
# FOXP3-ΔN delE251 = FOXP3-ΔN delE251 (human, UniProt Q9BZS1 182-431, del251-251); assay: as above; conditions: protein: ivt; chain copies: 2; label: 32P 5' end; blunt
# FOXP3-ΔN [4] = biological target: T2, FOXP3-ΔN; assay: as above; conditions: protein: ivt; chain copies: 2; label: 32P 5' end; blunt; remark: listed apart in the source
# FOXP3 FKH domain = biological target: T1, FOXP3 FKH domain; assay: as above; conditions: chain copies: 2; label: 32P 5' end; blunt
# Foxp1A full length = Foxp1A full length (mouse, UniProt P58462 1-705); assay: as above; conditions: protein: ivt; tags: HA; chain copies: 2; label: 32P 5' end; blunt
# Foxp1A full length, sequence (P58462 whole entry): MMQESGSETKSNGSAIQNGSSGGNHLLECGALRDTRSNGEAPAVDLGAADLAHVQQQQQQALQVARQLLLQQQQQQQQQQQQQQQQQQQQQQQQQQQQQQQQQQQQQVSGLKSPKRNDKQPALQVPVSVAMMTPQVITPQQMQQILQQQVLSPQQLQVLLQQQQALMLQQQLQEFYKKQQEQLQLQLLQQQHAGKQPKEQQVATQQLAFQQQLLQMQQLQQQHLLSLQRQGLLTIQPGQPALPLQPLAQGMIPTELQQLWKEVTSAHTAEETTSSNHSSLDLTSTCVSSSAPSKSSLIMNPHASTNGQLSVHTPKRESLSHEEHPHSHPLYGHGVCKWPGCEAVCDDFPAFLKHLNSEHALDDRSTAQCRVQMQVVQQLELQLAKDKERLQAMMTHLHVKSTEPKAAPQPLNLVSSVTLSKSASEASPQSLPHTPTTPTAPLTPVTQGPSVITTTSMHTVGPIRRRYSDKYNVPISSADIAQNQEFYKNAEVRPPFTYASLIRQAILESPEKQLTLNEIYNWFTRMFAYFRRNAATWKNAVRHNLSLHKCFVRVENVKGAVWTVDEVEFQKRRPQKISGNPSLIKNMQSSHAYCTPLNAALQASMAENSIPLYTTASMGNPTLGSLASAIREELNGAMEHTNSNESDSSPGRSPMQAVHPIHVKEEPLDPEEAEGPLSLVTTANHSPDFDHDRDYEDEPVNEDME
# FOXP3 full length, sequence (Q9BZS1 whole entry): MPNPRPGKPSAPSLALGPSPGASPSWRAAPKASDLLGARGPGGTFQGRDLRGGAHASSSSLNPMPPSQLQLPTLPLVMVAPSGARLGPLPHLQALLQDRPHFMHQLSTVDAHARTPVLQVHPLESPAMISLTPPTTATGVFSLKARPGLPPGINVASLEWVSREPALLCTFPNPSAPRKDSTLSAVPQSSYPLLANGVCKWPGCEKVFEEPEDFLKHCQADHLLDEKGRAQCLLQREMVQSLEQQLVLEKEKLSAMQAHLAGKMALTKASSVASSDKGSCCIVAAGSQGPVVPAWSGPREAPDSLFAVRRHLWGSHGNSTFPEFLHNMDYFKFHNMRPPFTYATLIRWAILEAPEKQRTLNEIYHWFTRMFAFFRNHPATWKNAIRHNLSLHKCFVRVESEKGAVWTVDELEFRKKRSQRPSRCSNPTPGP
# T2 sequence (Q9BZS1 182-431, stated change not applied): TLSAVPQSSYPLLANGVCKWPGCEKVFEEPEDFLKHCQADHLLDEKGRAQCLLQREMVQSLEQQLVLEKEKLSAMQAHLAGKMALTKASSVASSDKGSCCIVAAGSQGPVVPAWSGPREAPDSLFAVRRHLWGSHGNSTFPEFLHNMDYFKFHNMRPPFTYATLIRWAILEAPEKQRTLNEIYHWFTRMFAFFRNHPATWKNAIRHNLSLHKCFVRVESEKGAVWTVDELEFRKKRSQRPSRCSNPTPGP
# FOXP3-ΔN C204S, sequence (Q9BZS1 182-431 C204S): as the sequence (Q9BZS1 182-431, stated change not applied) above, with C23S counted along it
# FOXP3-ΔN delE251, sequence (Q9BZS1 other isoform, or with tags, fused parts or gaps del251-251 | mutant): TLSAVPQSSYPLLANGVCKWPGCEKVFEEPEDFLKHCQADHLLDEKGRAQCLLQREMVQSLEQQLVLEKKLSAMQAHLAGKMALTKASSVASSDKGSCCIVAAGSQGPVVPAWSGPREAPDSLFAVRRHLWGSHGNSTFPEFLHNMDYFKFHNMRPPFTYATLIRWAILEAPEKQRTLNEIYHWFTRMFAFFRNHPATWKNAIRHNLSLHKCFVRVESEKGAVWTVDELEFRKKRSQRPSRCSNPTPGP
# FOXP3-ΔN ΔFKH, sequence (Q9BZS1 182-336, stated change not applied): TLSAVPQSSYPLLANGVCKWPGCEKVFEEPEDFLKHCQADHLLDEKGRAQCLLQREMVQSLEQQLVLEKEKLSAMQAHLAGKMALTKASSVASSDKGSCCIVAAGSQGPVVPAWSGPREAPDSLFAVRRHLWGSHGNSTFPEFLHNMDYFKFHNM
# FOXP3-ΔN delK250, sequence (Q9BZS1 other isoform, or with tags, fused parts or gaps del250-250 | mutant): as the sequence (Q9BZS1 other isoform, or with tags, fused parts or gaps del251-251 | mutant) above, with K69E counted along it
binder,measurement,setting,value
B1,binding signal,FOXP3-ΔN [1],~3 fold versus 14-bp spacing
B2,binding result,FOXP3-ΔN [2],no binding
B3,binding result,FOXP3-ΔN C204S,binds
same,binding signal,FOXP3-ΔN [3],> 2 fold versus A probe
same,binding result,FOXP3 full length,no binding
same,binding result,FOXP3-ΔN delK250,no binding
same,binding result,FOXP3-ΔN ΔFKH,no binding
same,binding result,FOXP3-ΔN delE251,no binding
B4,binding signal,FOXP3-ΔN [1],~3 fold versus 14-bp spacing
B5,binding signal,FOXP3-ΔN [4],< 0.5 fold versus A' (GT)
B6,binding result,FOXP3 full length,no binding
same,binding result,FOXP3 FKH domain,no binding
same,binding result,Foxp1A full length,binds
B7,binding result,FOXP3 full length,no binding
same,binding result,FOXP3-ΔN [2],no binding
